# Test results from patent publication US20250136677A1 (ZOETIS SERVICES, published 2025).
# Like-named read-outs stand apart in the source and are kept apart here.
# T1: wildtype feline IL-31 protein (Feline_IL31_wildtype) (feline)
# T1 construct: Full length feline IL-31 with C-terminal His tag, secreted from ExpiCHO cells; also called fIL-31
# T1 chain: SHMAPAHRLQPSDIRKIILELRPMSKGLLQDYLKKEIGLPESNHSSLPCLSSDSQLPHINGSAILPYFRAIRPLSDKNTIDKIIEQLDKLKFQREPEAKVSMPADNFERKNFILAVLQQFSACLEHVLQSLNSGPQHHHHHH
# What was measured:
# [1] = target: T1, wildtype feline IL-31 protein …; assay: Biacore, feline IL-31 chip, mAb 100 nM, share of points within parent mean +/-3 SD; parameters: key: % of mutant data points within parent mAb mean ±3 SD
# Source text: The region of an antibody responsible for antigen recognition represents the paratope. A paratope is created by a combination of amino acids in the complementarity determining regions (CDRs) of both the heavy and light chain variable regions. The binding between antibody and antigen is often mediated by side chains of CDR residues with side chains or carbohydrate moieties of the antigen. To help define critical side chains involved in antibody recognition alanine scanning mutagenesis was performed on each CDR residue in both the heavy and light chain. These mutants were then individually tested for the ability to bind feline IL-31 using the biacore and evaluated for inhibition of IL-31-mediated signaling in the FCWF-4 cell based assay.
# (§1) The mean response unit of four replicates of the parent mAb+/−3 standard deviations was used to generate parameters to define a threshold of response units comprising both the on- and off-rates antibody binding (FIG. 22). The percentage of data points for each mutant fell within this threshold was then used to define a “% similarity score” (FIG. 23).
# [2] = target: T1, wildtype feline IL-31 protein …; assay: cell-based or functional assay
# [3] = target: T1, wildtype feline IL-31 protein …; assay: Biacore, feline IL-31 chip, mAb 100 nM, share of points within parent mean +/-3 SD; parameters: key: % of mutant data points within parent mAb mean ±3 SD
# Source text: as §1
# [4] = target: T1, wildtype feline IL-31 protein …; assay: cell-based or functional assay
Binder,Binding Similarity score [1],"% Inhibition Relative to Parent (pSTAT, FCWF-4 cells) [2]",Binding Similarity score [3],"% Inhibition Relative to Parent (pSTAT, FCWF-4 cells) [4]"
"A03 (antibody, V domains shown, sample ID reads A03 although it stands between A07 and A09) VH: QVLLVQSGAEVRTPGASVKIFCKASGYSFTSYTIHWLRQAPAQGLEWMGNINPTSGYTENNQRFKDRLTLTADTSTNTAYMELSSLRSADTAMYYCARWGFKYDGEWSFDVWGAGTTVTVSS VL: EIQMTQSPSSLSASPGDRVTITCRASQAISIWLSWYQQKPGNIPKVLINKASNLHIGVPSRFSGSGSGTDFTLTISSLEPEDAATYYCLQSQTYPLTFGGGTKLEIK",58,52.9%,,
"A07 (antibody, V domains shown) VH: QVLLVQSGAEVRTPGASVKIFCKASGYSFTSYTIHWLRQAPAQGLEWMGNINPTSGYTENNQRFKDRLTLTADTSTNTAYMELSSLRSADTAMYYCARWGFKYDGEWSFDVWGAGTTVTVSS VL: EIQMTQSPSSLSASPGDRVTITCRASAGISIWLSWYQQKPGNIPKVLINKASNLHIGVPSRFSGSGSGTDFTLTISSLEPEDAATYYCLQSQTYPLTFGGGTKLEIK",74.4,93.6%,,
"A57 (antibody, V domains shown) VH: QVLLVQSGAEVRTPGASVKIFCKASGYSFTSYTIHWLRQAPAQGLEWMGNINPTSGYTENNQRFKDRLTLTADTSTNTAYMELSSLRSADTAMYYCARWGFKYAGEWSFDVWGAGTTVTVSS VL: EIQMTQSPSSLSASPGDRVTITCRASQGISIWLSWYQQKPGNIPKVLINKASNLHIGVPSRFSGSGSGTDFTLTISSLEPEDAATYYCLQSQTYPLTFGGGTKLEIK",,,38.9,85.4%
"A52 (antibody, V domains shown) VH: QVLLVQSGAEVRTPGASVKIFCKASGYSFTSYTIHWLRQAPAQGLEWMGNINPTSGYTENNQRFKDRLTLTADTSTNTAYMELSSLRSADTAMYYCARAGFKYDGEWSFDVWGAGTTVTVSS VL: EIQMTQSPSSLSASPGDRVTITCRASQGISIWLSWYQQKPGNIPKVLINKASNLHIGVPSRFSGSGSGTDFTLTISSLEPEDAATYYCLQSQTYPLTFGGGTKLEIK",,,2.4,-2.1%
"A06 (antibody, V domains shown) VH: QVLLVQSGAEVRTPGASVKIFCKASGYSFTSYTIHWLRQAPAQGLEWMGNINPTSGYTENNQRFKDRLTLTADTSTNTAYMELSSLRSADTAMYYCARWGFKYDGEWSFDVWGAGTTVTVSS VL: EIQMTQSPSSLSASPGDRVTITCRAAQGISIWLSWYQQKPGNIPKVLINKASNLHIGVPSRFSGSGSGTDFTLTISSLEPEDAATYYCLQSQTYPLTFGGGTKLEIK",89.7,40%,,
"A65 (antibody, V domains shown) VH: QVLLVQSGAEVRTPGASVKIFCKASGYSFTSYTIHWLRQAPAQGLEWMGNINPTSGYTENNQRFKDRLTLTADTSTNTAYMELSSLRSADTAMYYCARWGFKYDGEWSFDAWGAGTTVTVSS VL: EIQMTQSPSSLSASPGDRVTITCRASQGISIWLSWYQQKPGNIPKVLINKASNLHIGVPSRFSGSGSGTDFTLTISSLEPEDAATYYCLQSQTYPLTFGGGTKLEIK",,,50.5,26.8%
"A63 (antibody, V domains shown) VH: QVLLVQSGAEVRTPGASVKIFCKASGYSFTSYTIHWLRQAPAQGLEWMGNINPTSGYTENNQRFKDRLTLTADTSTNTAYMELSSLRSADTAMYYCARWGFKYDGEWSADVWGAGTTVTVSS VL: EIQMTQSPSSLSASPGDRVTITCRASQGISIWLSWYQQKPGNIPKVLINKASNLHIGVPSRFSGSGSGTDFTLTISSLEPEDAATYYCLQSQTYPLTFGGGTKLEIK",,,2.9,-6%
"A05 (antibody, V domains shown) VH: QVLLVQSGAEVRTPGASVKIFCKASGYSFTSYTIHWLRQAPAQGLEWMGNINPTSGYTENNQRFKDRLTLTADTSTNTAYMELSSLRSADTAMYYCARWGFKYDGEWSFDVWGAGTTVTVSS VL: EIQMTQSPSSLSASPGDRVTITCAASQGISIWLSWYQQKPGNIPKVLINKASNLHIGVPSRFSGSGSGTDFTLTISSLEPEDAATYYCLQSQTYPLTFGGGTKLEIK",25.6,0%,,
"A54 (antibody, V domains shown) VH: QVLLVQSGAEVRTPGASVKIFCKASGYSFTSYTIHWLRQAPAQGLEWMGNINPTSGYTENNQRFKDRLTLTADTSTNTAYMELSSLRSADTAMYYCARWGAKYDGEWSFDVWGAGTTVTVSS VL: EIQMTQSPSSLSASPGDRVTITCRASQGISIWLSWYQQKPGNIPKVLINKASNLHIGVPSRFSGSGSGTDFTLTISSLEPEDAATYYCLQSQTYPLTFGGGTKLEIK",,,17.6,-1%
"A62 (antibody, V domains shown) VH: QVLLVQSGAEVRTPGASVKIFCKASGYSFTSYTIHWLRQAPAQGLEWMGNINPTSGYTENNQRFKDRLTLTADTSTNTAYMELSSLRSADTAMYYCARWGFKYDGEWAFDVWGAGTTVTVSS VL: EIQMTQSPSSLSASPGDRVTITCRASQGISIWLSWYQQKPGNIPKVLINKASNLHIGVPSRFSGSGSGTDFTLTISSLEPEDAATYYCLQSQTYPLTFGGGTKLEIK",,,46.1,22.6%
"A55 (antibody, V domains shown) VH: QVLLVQSGAEVRTPGASVKIFCKASGYSFTSYTIHWLRQAPAQGLEWMGNINPTSGYTENNQRFKDRLTLTADTSTNTAYMELSSLRSADTAMYYCARWGFAYDGEWSFDVWGAGTTVTVSS VL: EIQMTQSPSSLSASPGDRVTITCRASQGISIWLSWYQQKPGNIPKVLINKASNLHIGVPSRFSGSGSGTDFTLTISSLEPEDAATYYCLQSQTYPLTFGGGTKLEIK",,,12.6,66.8%
"A58 (antibody, V domains shown) VH: QVLLVQSGAEVRTPGASVKIFCKASGYSFTSYTIHWLRQAPAQGLEWMGNINPTSGYTENNQRFKDRLTLTADTSTNTAYMELSSLRSADTAMYYCARWGFKYDAEWSFDVWGAGTTVTVSS VL: EIQMTQSPSSLSASPGDRVTITCRASQGISIWLSWYQQKPGNIPKVLINKASNLHIGVPSRFSGSGSGTDFTLTISSLEPEDAATYYCLQSQTYPLTFGGGTKLEIK",,,16.7,15.3%
"A49 (antibody, V domains shown) VH: QVLLVQSGAEVRTPGASVKIFCKASGYSFTSYTIHWLRQAPAQGLEWMGNINPTSGYTENAQRFKDRLTLTADTSTNTAYMELSSLRSADTAMYYCARWGFKYDGEWSFDVWGAGTTVTVSS VL: EIQMTQSPSSLSASPGDRVTITCRASQGISIWLSWYQQKPGNIPKVLINKASNLHIGVPSRFSGSGSGTDFTLTISSLEPEDAATYYCLQSQTYPLTFGGGTKLEIK",,,37,46.6%
"A50 (antibody, V domains shown) VH: QVLLVQSGAEVRTPGASVKIFCKASGYSFTSYTIHWLRQAPAQGLEWMGNINPTSGYTENNARFKDRLTLTADTSTNTAYMELSSLRSADTAMYYCARWGFKYDGEWSFDVWGAGTTVTVSS VL: EIQMTQSPSSLSASPGDRVTITCRASQGISIWLSWYQQKPGNIPKVLINKASNLHIGVPSRFSGSGSGTDFTLTISSLEPEDAATYYCLQSQTYPLTFGGGTKLEIK",,,58.6,55.5%
"A60 (antibody, V domains shown) VH: QVLLVQSGAEVRTPGASVKIFCKASGYSFTSYTIHWLRQAPAQGLEWMGNINPTSGYTENNQRFKDRLTLTADTSTNTAYMELSSLRSADTAMYYCARWGFKYDGEASFDVWGAGTTVTVSS VL: EIQMTQSPSSLSASPGDRVTITCRASQGISIWLSWYQQKPGNIPKVLINKASNLHIGVPSRFSGSGSGTDFTLTISSLEPEDAATYYCLQSQTYPLTFGGGTKLEIK",,,2.4,-8.7%
"A64 (antibody, V domains shown) VH: QVLLVQSGAEVRTPGASVKIFCKASGYSFTSYTIHWLRQAPAQGLEWMGNINPTSGYTENNQRFKDRLTLTADTSTNTAYMELSSLRSADTAMYYCARWGFKYDGEWSFAVWGAGTTVTVSS VL: EIQMTQSPSSLSASPGDRVTITCRASQGISIWLSWYQQKPGNIPKVLINKASNLHIGVPSRFSGSGSGTDFTLTISSLEPEDAATYYCLQSQTYPLTFGGGTKLEIK",,,2.7,6.9%
